Source: patent US20230310559A1, “Use of Amylase or Maltose to Treat or Prevent Neurodegeneration” (St. Jude Children's Research Hospital, Inc., priority 2020, published 2023)
Where a chain is given by its changes, count along the chain named. “Also recorded” adds a separate entry of the source.

B1: Amyrel: a secreted amylase enzyme (Drosophila myokine), GENBANK Accession No. NP_477262.1, given by transgenic overexpression (protein, UniProt O18408 20-493, looked up)
Alpha-amylase-related protein: QHNPHWWGNRNTIVHLFEWKWSDIAQECESFLGPRGFAGVQVSPVNENILSAGRPWWERYQPISYKLTTRSGNEEEFGDMVRRCNDVGVRIYVDVLLNHMSGDFDGVAVGTAGTEAEPSKKSFPGVPYTAQDFHPTCEITDWNDRFQVQQCELVGLKDLDQSSDWVRSKLIEFLDHLIELGVAGFRVDAAKHMASEDLEYIYSSLSNLNIDHGFPHNSRPFIFQEVIDHGHETVSRDEYKDLGAVTEFRFSEEIGNAFRGNNALKWLQSWGTDWGFLPSGQALTFVDNHDNQRDAGAVLNYKSPRQYKMATAFHLAYPYGISRVMSSFAFDDHDTPPPQDAQERIISPEFDADGACVNGWICEHRWRQIYAMVGFKNAVRDTEITGWWDNGDNQISFCRGNKGFLAINNNLYDLSQDLNTCLPAGTYCDVISGSLIDGSCTGKSVTVNENGYGYIHIGSDDFDGVLALHVDAKV
B2: Amy-d: other Drosophila amylase, transgenic overexpression (protein, UniProt P81641 19-494, looked up)
Alpha-amylase B: QFDTNYASGRSGMVHLFEWKWDDIAAECENFLGPNGYAGVQVSPVNENAVKDSRPWWERYQPISYKLETRSGNEEQFASMVKRCNAVGVRTYVDVVFNHMAADGGTYGTGGSTASPSSKSYPGVPYSSLDFNPTCAISNYNDANEVRNCELVGLRDLNQGNSYVQDKVVEFLDHLIDLGVAGFRVDAAKHMWPADLAVIYGRLKNLNTDHGFASGSKAYIVQEVIDMGGEAISKSEYTGLGAITEFRHSDSIGKVFRGKDQLQYLTNWGTAWGFAASDRSLVFVDNHDNQRGHGAGGADVLTYKVPKQYKMASAFMLAHPFGTPRVMSSFSFTDTDQGPPTTDGHNIASPIFNSDNSCSGGWVCEHRWRQIYNMVAFRNTVGSDEIQNWWDNGSNQISFSRGSRGFVAFNNDNYDLNSSLQTGLPAGTYCDVISGSKSGSSCTGKTVTVGSDGRASIYIGSSEDDGVLAIHVNAKL
B3: Amy-p: other Drosophila amylase, transgenic overexpression (protein, UniProt P08144 19-494, looked up)
Alpha-amylase A: B2 Alpha-amylase B with Y458N

Legend:
Drosophila heads = assay: Head transcriptome of flies with muscle-specific Amyrel overexpression; format: in vivo
[1] = system: Huntingtin-polyQ72-GFP aggregates in the Drosophila retina; assay: Analysis of pathogenic Huntingtin-polyQ72-GFP aggregation in Drosophila retina; format: in vivo; details: transgenic overexpression in Drosophila retinas during aging, compared to controls
Procedure: (§1) Cloning of Myokines and Fly Transgenesis. The coding sequences of Drosophila CG4666, CG8093, Amyrel, Ag5r2, Amy-d, and Amy-p were generated as synthetic minigenes and cloned into the pUASTattB vector with the EcoRI and KpnI restriction enzymes. These plasmids were then injected into attP40 and/or attP2 by using the site-specific phiC31 integrase (Markstein, et al. (2008) Nat. Genet. 40(4):476-483) to generate transgenic flies.
Analysis of Pathogenic Huntingtin Aggregation. Pathogenic Huntingtin-polyQ72-GFP protein aggregates (Zhang, et al. (2010) Genetics 184(4):1165-79) were imaged with an epifluorescence microscope and the number and total area of protein aggregates estimated with CELLPROFILER™. This analysis was done with male flies after aging at 25° C. for 30 days, and/or aging at 29° C. for 20 days. A custom-made script was used for image analysis in CELLPROFILER™.
Analysis of Huntingtin-GFP Aggregates in Drosophila Eye. Frozen Drosophila was used for imaging of the eyes using ZEISS SteREO Discovery.V12 microscope at a specific exposure time and consistent settings. The acquired gray scale images were then analyzed for the area occupied by aggregates (Huntingtin-GFP specks) using CELLPROFILER™ 3.0.0 pipeline.

[2] = system: Drosophila retina with mutant tau^V337M; assay: Age-related retinal degeneration induced by mutant tau V337M; format: in vivo; details: overexpression in Drosophila
[3] = Amylase activity assay of fly body homogenates; format: in vivo, Drosophila; details: Amyrel overexpression, in comparison with isogenic controls
Procedure: Amylase Activity Assay. Colorimetric detection of amylase activity was performed according to the manufacturer's instructions (Sigma-Aldrich). In brief, five flies were decapitated and placed on ice in a 1.5 ml tube. The decapitated bodies were homogenized in 150 μL of Amylase Assay Buffer (AAB). The homogenate was collected after high-speed centrifugation for 10 minutes. For this assay, 5 μL the body homogenate or standard was added to a well in a 96-well plate and brought up to 50 μL with AAB and water, respectively. A master reaction mix was made to conduct a colorimetric assay, and 100 μL was added to each well. The plate was mixed well using a horizontal shaker. After 2-3 minutes the absorbance was measured at 405 nm.

[4] = Maltose assays of fly hemolymph and bodies; format: in vivo, Drosophila; details: Amyrel overexpression, in comparison with isogenic controls
Procedure: Maltose Assays. Flies were decapitated and placed in a perforated 0.6 mL tube resting in a 1.5 mL tube, which was centrifuged at 1700 g for 6 minutes at 4° C. to collect the hemolymph ([…], et al. (2009) Cell Metab. 10:199-207). Equal volumes of hemolymph (1 μL) were used for subsequent determination of maltose levels. To avoid interference from eye pigments (Al-Anzi, et al. (2010) PLoS ONE 5(8):e12353), flies (n=10/biological replicate) were decapitated and homogenized with a Next Advance BULLET BLENDER® and 0.5-mm zirconium beads in 100 μL of maltose assay buffer (MAB). Body homogenates were then collected after centrifugation at maximum speed for 10 minutes to remove cuticle debris. Subsequently, the quantification of maltose concentration in the hemolymph and bodies was done with the maltose assay kit (Sigma-Aldrich), according to manufacturer's instructions. In brief, hemolymph and body homogenates were diluted 1:40 in MAB. […] After 1 hour, the absorbance was read at 570 nm with a Tecan Infinite 200 Pro. Blank (0 maltose standards) readings were subtracted from all readings. Maltose levels were calculated from the standard curve after subtracting the absorbance read in the absence of glucosidase treatment, which accounts for background glucose levels, from the absorbance read in duplicate samples treated with glucosidase.

[5] = system: Drosophila heads and thoraces; assay: Western blots of detergent-soluble and detergent-insoluble fractions of Drosophila heads and thoraces during aging; format: in vivo
Procedure: as §1
Western Blots of Detergent-Soluble and Detergent-Insoluble Fractions. Western blots for detergent-soluble and detergent-insoluble fractions were carried out as previously described (Demontis & Perrimon (2010) Cell 143(5):813-825). In brief, heads and thoraces were dissected from 30 male flies/sample and homogenized in ice-cold PBS with 1% TRITON™ X-100 containing protease and phosphatase inhibitors. Homogenates were centrifuged at 14,000 rpm at 4° C. and supernatants collected (TRITON™ X-100-soluble fraction). The remaining pellet was washed in ice-cold PBS with 1% TRITON™ X-100. The pellet was then resuspended in RIPA buffer containing 8M urea and 5% SDS, centrifuged at 14,000 rpm at 4° C., and the supernatant collected (TRITON™ X-100-insoluble fraction). Detergent-soluble and detergent-insoluble fractions were analyzed on 4-20% SDS-PAGE with anti-ubiquitin (Cell Signaling Technologies P4D1), anti-Ref(2)P/p62 (Abcam), anti-Atg8/GABARAP (Abcam), and/or anti-GFP (Cell Signaling Technologies) antibodies. Ponceau S staining, anti-Tubulin antibodies (Cell Signaling Technologies), and/or anti-actin antibodies were used as loading controls.
Soluble and Insoluble Protein Fractionation from Drosophila Tissues. Thoraces or heads were dissected from 30 male flies and homogenized in 100 μL ice-cold TRITON™ X-100 buffer (1% TRITON™ X-100 in PBS containing protease inhibitor and phosphatase inhibitor) for 5 minutes at highest speed. Homogenates were centrifuged at 14000 rpm at 4° C. for 10 minutes and supernatant collected (TRITON™ X-100-soluble fraction). The remaining pellet was washed in 400 μL of TRITON™ X-100 buffer, twice at 14000 rpm for 5 minutes at 4° C. The pellet was then resuspended in 100 μL 1× RIPA buffer containing 8M urea and 5% SDS at room temperature, centrifuged at 14000 rpm at 4° C. for 10 minutes, and supernatant was collected (TRITON™ X-100-insoluble fraction). Six μL of soluble/insoluble protein extracts were boiled with sample buffer containing DTT and separated by gel electrophoresis.

[6] = system: Drosophila brains and retinas; assay: Whole-mount immunostaining of Drosophila brains and retinas (poly-ubiquitin protein aggregates); format: in vivo; details: muscle-specific overexpression with Mhc-Gal4 or Act88F-GS-Gal4, compared to isogenic controls
Procedure: Whole-Mount Immunostaining of Drosophila Brains and Retinas. The immunostaining of brains and retinas was carried out using established methods (Demontis & Perrimon (2009) Development 136(6):983-93; Demontis & Perrimon (2010) Cell 143(5):813-825). In brief, retinas and brains were dissected, fixed for 30 minutes in phosphate-buffered saline (PBS) with 4% paraformaldehyde and 0.2% TRITON⋅ X-100 at room temperature, washed for >3 times in PBS with 0.2% TRITON⋅ X-100 at room temperature, and immunostained overnight at 4° C. with rabbit anti-poly-ubiquitin (FK2; Enzo Life Sciences) and anti-Ref(2)P/p62 antibodies (Abeam). After washes with PBS with 0.2% TRITON⋅ X-100, the samples were incubated for 2 hours at room temperature with secondary antibodies and phalloidin conjugated to a fluorescent dye sold under the tradename ALEXA FLUOR® 635. The samples were subsequently washed, mounted in antifade medium and imaged on a Zeiss LSM 880 confocal microscope.

Drosophila = assay: Startle-induced negative geotaxis; format: in vivo; details: muscle-specific overexpression, compared to isogenic controls
Procedure: Startle-Induced Negative Geotaxis. Startle-induced negative geotaxis was carried out according to established methods. Specifically, flies were tapped and the number of flies that reached the top of the vial was scored after 20 seconds.

| Molecule | induction of Hsp23 gene (Drosophila heads) | genes involved in proteostasis, including several chaperones and proteases (Drosophila heads; compared to isogenic controls) | pathogenic huntingtin (Htt-Q72-GFP) aggregates, total area and number of speckles [1] | age-related neurodegeneration (retinal degeneration, rough eye phenotype) induced by tau^V337M [2] | amylase activity [3] | circulating (hemolymph) maltose [4] | whole body maltose [4] | levels of polyubiquitinated proteins in heads ([5]; flies with pathogenic Huntingtin (Htt-polyQ120) expression in the retina, muscle-specific overexpression) | proteostasis in skeletal muscle ([5]; muscle-specific overexpression) | age-related accumulation of proteasome substrates (poly-ubiquitinated proteins, detergent-insoluble fractions) in head tissues ([5]; muscle-specific overexpression, 10, 30 and 60 days) | Atg8 conversion and levels (autophagy) ([5]; muscle-specific overexpression, heads) | amount of poly-ubiquitin protein aggregates in the retina and brain in old age [6] | capacity for startle-induced negative geotaxis during aging (Drosophila) | percentage of flies unable to respond to stimulation, increase with aging (Drosophila) |
| --- | --- | --- | --- | --- | --- | --- | --- | --- | --- | --- | --- | --- | --- | --- |
| B1 | > 8 fold | induced | less so; also recorded: decrease in an age-dependent manner | largely prevented | increase | increase | increase | reduced the levels of polyubiquitinated proteins | did not regulate proteostasis in skeletal muscle | reduced the age-related accumulation of proteasome substrates; also recorded: reduced the age-related increase in polyubiquitinated proteins | not significantly modulated | significantly reduced | preserves the capacity for negative geotaxis | less so |
| B2 | – | – | reduced | – | – | – | – | – | – | – | – | – | – | – |
| B3 | – | – | reduced | – | – | – | – | – | – | – | – | – | – | – |
